Results on 78 sequences are retold here after the supplement of paper PMC10126150.

± gives the standard deviation of the averaged measurements.

The test system of the data set is ATP. Put plainly: switch fluorescence ratio, 500 uM ATP over buffer (Cy3 cluster intensity, sum of 5 cycles each) (fold (ratio)); higher = stronger signal-on switching upon ATP binding; sequences stand for … in TCGTCGGCAGCGTCAGATGTGTATAAGAGACAGTTTTTTTTTTTTTTTTTTTTTTTTT…TC. To be noted: aptamer strand: ATP DNA aptamer (quencher-CACCTGGGGGAGTATTGCGGAGGAAGG + anchor), 100 nM annealed; ATP concentration: 500 uM. The method in brief:
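Exposure to 500 uM ATP lasted 15 min at 22 °C before imaging, and a selection-buffer image was taken beforehand, for Cy3-labelled switching-strand clusters on a modified Illumina MiSeq flow-cell annealed to 100 nM quencher-labelled ATP aptamer. Five buffer/ATP cycles were run with NaOH stripping and re-annealing between them. The fluorescence ratio per cluster is summed target-cycle over summed buffer-cycle Cy3 intensity, averaged per switch-domain sequence. Clusters outside 100-1000 RFU were excluded.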

With ATAGTATATT, the switch fluorescence ratio stood at 0.982 ± 0.044.
The value for GGGGATGGGA was 1.01 ± 0.033.
For AACGGGGGCC, the switch fluorescence ratio stood at 1.03 ± 0.066.
As to GATTTTGGGG, the switch fluorescence ratio is 1.01 ± 0.029.
Then TTTGGGTAAA, with 1.02 ± 0.032; and ACGACTGCGT, with 1.0213 ± 0.00018; and AGTCTAAACT, with 1.02 ± 0.016.
Consider TAAGGGGTAG, for which the switch fluorescence ratio worked out at 0.994 ± 0.052.
As to CTTAAATGGG, the switch fluorescence ratio stood at 0.955 ± 0.019.
Turning to TGCAGAGGAA, the switch fluorescence ratio is 1.03 ± 0.018.
On to TAAGATGGGG, for which the switch fluorescence ratio was found to be 0.9623 ± 0.0054.
Regarding GGGTACTATT, the switch fluorescence ratio amounted to 0.982 ± 0.031.
Consider AAGGCACGCT, for which the switch fluorescence ratio came out at 1 ± 0.065.
In the case of TTGGCGGGCA, the switch fluorescence ratio amounted to 0.998 ± 0.027.
For the sequence GCGTGCAGGC, the switch fluorescence ratio was determined as 1.03 ± 0.023.
For the sequence ATGTTCACGG, the switch fluorescence ratio worked out at 1.01 ± 0.033.
With ATTAGTTCCG, the switch fluorescence ratio came to 0.9814 ± 0.0025.
The value for GAATGGCGTA was 1.02 ± 0.046; that for TGGTACATCA was 0.973 ± 0.054.
Then ATAAGATTGC, with 0.991 ± 0.042; and AGTTTTTAGG, with 0.99 ± 0.024.
For AGAAAGCGCG, the switch fluorescence ratio is 1.05 ± 0.019.
The value for TCGGTCGACG was 0.962 ± 0.027; that for GGTATCAGTT was 1.0006 ± 0.0002.
As to GGTTTTACTC, the switch fluorescence ratio stood at 1.0379 ± 0.0006.
For TAGATGGTTT, the switch fluorescence ratio was determined as 0.97 ± 0.036.
GGGTCTCAGT: the switch fluorescence ratio is 0.994 ± 0.032.
For the sequence GTAAGTCCGA, the switch fluorescence ratio stood at 0.98 ± 0.0033.
On to CGTTATACTG, for which the switch fluorescence ratio worked out at 1.07 ± 0.027.
Take CGTGATTTTT: the switch fluorescence ratio turned out to be 1 ± 0.041.
TATTGGTTCG: the switch fluorescence ratio stood at 1.03 ± 0.027.
CAGACCCCAT: the switch fluorescence ratio is 1.06 ± 0.035.
The value for TCATGGTCCC was 1.02 ± 0.018; that for TGCTATAAAG was 0.988 ± 0.043; that for ACGTATTACA was 1.83 ± 0.87.
For GCTCAGTAGT, the switch fluorescence ratio came to 1.03 ± 0.027.
Turning to TAGTCTTTTT, the switch fluorescence ratio was found to be 1.03 ± 0.027.
In the case of ATTGTTGAAT, the switch fluorescence ratio was 0.993 ± 0.015.
Regarding TTCGTGTACA, the switch fluorescence ratio is 1.03 ± 0.026.
For TATGGCATCG, the switch fluorescence ratio amounted to 0.99 ± 0.014.
On to GAAGGGCGTT, for which the switch fluorescence ratio came out at 0.98247 ± 0.00082.
The value for TAGCTGTCAC was 1.04 ± 0.04.
GGAGAGAAGC: the switch fluorescence ratio came to 1.02 ± 0.076.
Take TTATTCGTGT: the switch fluorescence ratio stood at 1.01 ± 0.04.
The value for CGCGTGGGCC was 1.03 ± 0.026; that for TAATGGGCGA was 0.976 ± 0.064; that for TTATTTAGCT was 1.01 ± 0.017.
TTGACCCAGG: the switch fluorescence ratio stood at 1.23 ± 0.11.
As to CGTTATCGTC, the switch fluorescence ratio turned out to be 0.99 ± 0.0099.
Turning to ACCATGGGCT, the switch fluorescence ratio was found to be 0.974 ± 0.038.
For GGCGTGGGGA, the switch fluorescence ratio is 1.02 ± 0.017.
As for AGGTAATTAG, the switch fluorescence ratio amounted to 1 ± 0.012.
On to TGGGTTTTGG, for which the switch fluorescence ratio was determined as 0.997 ± 0.052.
The value for GATTTAAACA was 1.02 ± 0.029; that for GGGACTGCGT was 0.9624 ± 0.0072.
Then TTTGGTTCTC, with 0.977 ± 0.012.
Regarding GGGGGGCCAG, the switch fluorescence ratio worked out at 1.01 ± 0.04.
With GTGGCGCGGA, the switch fluorescence ratio worked out at 0.959 ± 0.013.
With AGGCTGCGTT, the switch fluorescence ratio is 1.02 ± 0.038.
With GGGGTTGGTC, the switch fluorescence ratio was found to be 1.04 ± 0.048.
The value for CATGTGGACG was 1.1 ± 0.02; that for TATTGGTTAA was 0.974 ± 0.021; that for GAATGGATGT was 1 ± 0.012.
TTTAAGGGTA: the switch fluorescence ratio worked out at 0.994 ± 0.023.
The value for GATATGGGGG was 1.01 ± 0.03.
The value for TTGGCCGGGT was 1.042 ± 0.0059; that for ATTGACGATC was 0.994 ± 0.016; that for AATTCGCACG was 1.034 ± 0.006.
With AGTTGGGGGC, the switch fluorescence ratio worked out at 1 ± 0.079.
Turning to CCGTATATCC, the switch fluorescence ratio was found to be 2.44 ± 0.16.
As to GGTCGGGAGA, the switch fluorescence ratio turned out to be 0.96 ± 0.039.
GAGTAAGGAC: the switch fluorescence ratio turned out to be 1.09 ± 0.061.
Regarding CAGCAGGGAG, the switch fluorescence ratio was determined as 1.1 ± 0.096.
In the case of GAAATTTAGG, the switch fluorescence ratio worked out at 0.9938 ± 0.0046.
Consider CGGTCGAGGA, for which the switch fluorescence ratio was found to be 0.988 ± 0.021.
As for GGGAGGGGTG, the switch fluorescence ratio was 1.02 ± 0.064.
With GGCTGGGCAG, the switch fluorescence ratio was found to be 0.981 ± 0.035.
TACTCAGTGG: the switch fluorescence ratio is 1.01 ± 0.022.
